Measured values taken from PMC8048981 (2021).
Blank lines part the entries; values can stand above or below the binder they belong to. Bridge positions count the residues as written; N and C are the ends.

Target: MDM2 (Homo sapiens, UniProt Q00987)
Assay: fluorescence polarization

Sequence of MDM2 (Q00987 whole entry): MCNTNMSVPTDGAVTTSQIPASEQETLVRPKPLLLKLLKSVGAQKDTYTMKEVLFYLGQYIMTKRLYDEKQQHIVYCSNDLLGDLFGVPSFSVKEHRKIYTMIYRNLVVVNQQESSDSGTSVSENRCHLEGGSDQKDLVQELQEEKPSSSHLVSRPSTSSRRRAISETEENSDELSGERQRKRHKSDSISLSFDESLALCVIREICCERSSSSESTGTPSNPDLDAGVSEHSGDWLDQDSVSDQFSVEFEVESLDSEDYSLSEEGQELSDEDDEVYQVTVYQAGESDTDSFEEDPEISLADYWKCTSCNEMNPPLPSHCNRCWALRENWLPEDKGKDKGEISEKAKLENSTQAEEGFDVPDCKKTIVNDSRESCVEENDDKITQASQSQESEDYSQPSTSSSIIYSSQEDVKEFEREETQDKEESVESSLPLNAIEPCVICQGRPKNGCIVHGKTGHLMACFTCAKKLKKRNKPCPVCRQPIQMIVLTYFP

- Kd: 29 nM
B1: stapled p53-derived peptide 29a' (peptide)
chain: {5(6)‑carboxyfluorescein}-QSQQTFCNLWRLLKQN-NH2
modifications: linker 7-14 via para‑phenyl thioalkyne amide (reagent 9a)

- Kd: 346 nM
B2: linear p53-derived peptide 28' (peptide)
chain: {5(6)‑carboxyfluorescein}-QSQQTFCNLWRLLKQN-NH2
